Results reported in patent publication US20210395318A1 (Molecular Partners, published 2021).

B1: SMA087 (designed binder)
chain: MRGSHHHHHHGSDLGKKLLEAARAGQDDEVRELLKAGADVNAKDYFSHTPLHLAARNGHLKIVEVLLKAGADVNAKDFAGKTPLHLAAADGHLEIVEVLLKAGADVNAQDIFGKTPADIAADAGHEDIAEVLQKAAGSPTPTPTTPTPTPTTPTPTPTGSDLGEKLLVAALYGQDDEVRELLKAGADVNAKDQWGLTPLHKAALQGHLEIVEVLLKAGADVNAKDERGHTPLHWAARFGHLEIVEVLLKAGADVNAQDQKGYTPADLAALWGHEDIAEVLQKAAGSPTPTPTTPTPTPTTPTPTPTGSDLGKKLLQAARAGQLDEVRELLKAGADVNAKDTWGFTPLHIAAESGHLEIVEVLLKAGADVNAKDVQGRTPLHIAAHSGHLEIVEVLLKAGADVNAKDFRGWTPLHLAAWSGHLEIVEILLKAGADVNAQDKSGKTPADLAARAGHQDIAEVLQKAA
B2: SMA104 (designed binder)
chain: MRGSHHHHHHGSDLGEKLLVAALYGQDDEVRELLKAGADVNAKDQWGLTPLHKAALQGHLEIVEVLLKAGADVNAKDERGHTPLHWAARFGHLEIVEVLLKAGADVNAQDQKGYTPADLAALWGHEDIAEVLQKAAGSPTPTPTTPTPTPTTPTPTPTGSDLGKKLLQAARAGQLDEVRELLKAGADVNAKDTWGFTPLHIAAESGHLEIVEVLLKAGADVNAKDVQGRTPLHIAAHSGHLEIVEVLLKAGADVNAKDFRGWTPLHLAAWSGHLEIVEILLKAGADVNAQDKSGKTPADLAARAGHQDIAEVLQKAAGSPTPTPTTPTPTPTTPTPTPTGSDLGKKLLQAARAGQLDEVRELLKAGADVNAKDTWGFTPLHIAAESGHLEIVEVLLKAGADVNAKDVQGRTPLHIAAHSGHLEIVEVLLKAGADVNAKDFRGWTPLHLAAWSGHLEIVEILLKAGADVNAQDKSGKTPADLAARAGHQDIAEVLQKAA
B3: SMA105 (designed binder)
chain: MRGSHHHHHHGSDLGEKLLVAALYGQDDEVRELLKAGADVNAKDQWGLTPLHKAALQGHLEIVEVLLKAGADVNAKDERGHTPLHWAARFGHLEIVEVLLKAGADVNAQDQKGYTPADLAALWGHEDIAEVLQKAAGSPTPTPTTPTPTPTTPTPTPTGSDLGKKLLQAARAGQLDEVRELLKAGADVNAKDTWGFTPLHIAAESGHLEIVEVLLKAGADVNAKDVQGRTPLHIAAHSGHLEIVEVLLKAGADVNAKDFRGWTPLHLAAWSGHLEIVEILLKAGADVNAQDKSGKTPADLAARAGHQDIAEVLQKAAGSPTPTPTTPTPTPTTPTPTPTGSDLGKKLLQAARAGQLDEVRELLKAGADVNAKDTWGFTPLHIAAESGHLEIVEVLLKAGADVNAKDVQGRTPLHIAAHSGHLEIVEVLLKAGADVNAKDFRGWTPLHLAAWSGHLEIVEILLKAGADVNAQDKSGKTPADLAARAGHQDIAEVLQKAAGSPTPTPTTPTPTPTTPTPTPTGSDLGKKLLQAARAGQLDEVRELLKAGADVNAKDTWGFTPLHIAAESGHLEIVEVLLKAGADVNAKDVQGRTPLHIAAHSGHLEIVEVLLKAGADVNAKDFRGWTPLHLAAWSGHLEIVEILLKAGADVNAQDKSGKTPADLAARAGHQDIAEVLQKAA
B4: SMA099 (designed binder)
chain: MRGSHHHHHHGSDLGKKLLEAARAGQDDEVRELLKAGADVNAKDYFSHTPLHLAARNGHLKIVEVLLKAGADVNAKDFAGKTPLHLAAADGHLEIVEVLLKAGADVNAQDIFGKTPADIAADAGHEDIAEVLQKAAGSPTPTPTTPTPTPTTPTPTPTGSDLGEKLLVAALYGQDDEVRELLKAGADVNAKDQWGLTPLHKAALQGHLEIVEVLLKAGADVNAKDERGHTPLHWAARFGHLEIVEVLLKAGADVNAQDQKGYTPADLAALWGHEDIAEVLQKAAGSPTPTPTTPTPTPTTPTPTPTGSDLGKKLLQAARAGQLDEVRELLKAGADVNAKDTWGFTPLHIAAESGHLEIVEVLLKAGADVNAKDVQGRTPLHIAAHSGHLEIVEVLLKAGADVNAKDFRGWTPLHLAAWSGHLEIVEILLKAGADVNAQDKSGKTPADLAARAGHQDIAEVLQKAAGSPTPTPTTPTPTPTTPTPTPTGSDLGKKLLQAARAGQLDEVRELLKAGADVNAKDTWGFTPLHIAAESGHLEIVEVLLKAGADVNAKDVQGRTPLHIAAHSGHLEIVEVLLKAGADVNAKDFRGWTPLHLAAWSGHLEIVEILLKAGADVNAQDKSGKTPADLAARAGHQDIAEVLQKAAGSPTPTPTTPTPTPTTPTPTPTGSDLGKKLLEAARAGQDDEVRELLKAGADVNAKDYFSHTPLHLAARNGHLKIVEVLLKAGADVNAKDFAGKTPLHLAAADGHLEIVEVLLKAGADVNAQDIFGKTPADIAADAGHEDIAEVLQKAA

Experiments:
Test in all cases: cell-based or functional assay
[1] = molecular target: T1, human CD40 on primary human B cells or human monocyte-derived dendritic cells (human, UniProt P25942 21-277)
[2] = molecular target: T1, human CD40 on primary human B cells or …; remark: listed apart in the source
[3] = molecular target: T1, human CD40 on primary human B cells or …; remark: listed apart in the source
[4] = molecular target: T1, human CD40 on primary human B cells or …; remark: listed apart in the source

T1 sequence (P25942 21-277 H80K/K81H limits assumed): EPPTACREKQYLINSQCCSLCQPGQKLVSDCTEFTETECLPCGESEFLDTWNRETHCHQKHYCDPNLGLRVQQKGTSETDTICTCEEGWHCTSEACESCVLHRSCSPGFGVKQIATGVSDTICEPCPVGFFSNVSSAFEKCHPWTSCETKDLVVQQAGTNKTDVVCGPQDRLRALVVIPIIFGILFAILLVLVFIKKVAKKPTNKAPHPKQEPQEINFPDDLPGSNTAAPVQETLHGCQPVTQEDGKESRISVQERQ

Row | Binder | EC50, % CD86, human B cells with FAP-CHO cells, w HSA [1] [nM] | EC50, % CD86, human B cells with FAP-CHO cells, w/o HSA [1] [nM] | EC50, MFI CD86, human B cells with FAP-CHO cells, w HSA [1] [nM] | EC50, MFI CD86, human B cells with FAP-CHO cells, w/o HSA [1] [nM] | Efficacy [MFI at highest dose], MFI CD86, human B cells with FAP-CHO cells, w HSA [2] [MFI] | Efficacy [MFI at highest dose], MFI CD86, human B cells with FAP-CHO cells, w/o HSA [2] [MFI] | Efficacy at highest dose, % CD86, human B cells with FAP-CHO cells, w HSA [2] [%] | Efficacy at highest dose, % CD86, human B cells with FAP-CHO cells, w/o HSA [2] [%] | Efficacy [MFI at highest dose], MFI CD86, human B cells with WT-CHO cells (no FAP), w HSA [3] [MFI] | Efficacy [MFI at highest dose], MFI CD86, human B cells with WT-CHO cells (no FAP), w/o HSA [3] [MFI] | Efficacy at highest dose, % CD86, human B cells with WT-CHO cells (no FAP), w HSA [3] [%] | Efficacy at highest dose, % CD86, human B cells with WT-CHO cells (no FAP), w/o HSA [3] [%] | fold increase of efficacy against SMA014, CD86 upregulation on human B cells with FAP expressing CHO cells [4] [fold] | fold increase of potency against SMA014, CD86 upregulation on human B cells with FAP expressing CHO cells [4] [fold]
1 | B1 | 72.3 | 11.4 | 52 | 28.9 | 799 | 1640 | 27 | 43.4 | 299 | 291 | 13.7 | 12.5 |  | 
2 | B2 |  | 0.23 |  | 0.74 |  | 6270 |  | 86.8 |  | 252 |  | 46 | 2 | 20
3 | B3 |  | 0.11 |  | 0.33 |  | 5560 |  | 87.2 |  | 672 |  | 69.2 |  | 
4 | B4 | 7.5 | 4.68 | 19.4 | 18.2 | 1720 | 4950 | 71.7 | 84.4 | 274 | 289 | 42.5 | 47.4 |  | 
